Test results from patent US20230074436A1 (DENALI THERAPEUTICS, published 2023).
No end group written: not given here. *: point of attachment. Biotin = O=C1N[C@H]2[C@H](CS[C@H]2CCCCC(=O)*)N1

Experiments:
[1] = target: T1, alpha-synuclein peptide 1-61 (human); assay: peptide ELISA
T1 construct: synthetic peptide coated on plate
Procedure: (§1) 96-well Nunc plates were coated with 1 pg/mL of the indicated synthetic peptide in PBS 50 μL/well overnight. The plates were washed three times with PBST, then blocked with 150 μL of 3% BSA in PBS for 1 hour. Purified antibody was diluted by serial dilution methods, from 10 pg/mL to 0.6 ng/ml, and 50 μL of the antibody solution was added to the peptide-coated wells. The plates were incubated for 1 hour at room temperature, then washed three times with PBST. Secondary detection antibody, goat anti-rat HRP (obtained from Southern Biotech) 1:5,000 diluted in BSA-PBS, was added to a concentration of 50 μL/well. Plates were incubated for one hour and washed three times with PBST. Plates were then developed with 50 μL/well of TMB substrate (obtained from Thermo Fisher) and quenched with 50 μL/well of 1 N sulfuric acid. The signal was quantified on a BioTek® plate reader at A450.

[2] = target: T2, alpha-synuclein peptide 1-95 (human); assay: peptide ELISA
T2 construct: synthetic peptide coated on plate
Procedure: as §1

[3] = target: alpha-synuclein peptide 1-112 (human); assay: peptide ELISA
Procedure: as §1

[4] = target: rat alpha-synuclein (rat, UniProt P37377 1-140); assay: direct ELISA on coated antigen;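 further: plates coated with recombinant human, mouse or rat alpha-synuclein, purified antibody titrated 10 µg/mL down to 0.6 ng/mL for 1 h, bound antibody detected by anti-rat HRP with TMB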
[5] = target: T3, asyn_113-127 (human); assay: Ala-scan peptide ELISA, row B, run 1
T3 construct: also called pep1
T3 peptide: Biotin-LEDMPVDPDNEAYEM
Procedure: (§2) 96-well Nunc plates were coated with 50 μL per well of 1 μg/mL streptavidin (from Jackson Immuno Research Laboratory) in PBS at 4° C. overnight. The plates were washed three times with PBST, and blocked with PBS containing 3% BSA at room temperature for 1 hour. The N-terminal biotinylated peptides were dissolved in Milli Q water to a concentration of 2 mg/mL, then further diluted to a concentration of 2 μg/mL with PBS. 50 μl of the diluted peptide was applied to the streptavidin-coated plates and incubated at 4° C. overnight. 2 μg/mL of biotinylated human alpha-synuclein was used as the positive control. The plates were washed three times with PBST before use. Purified antibody was diluted by serial dilution methods, from 20 μg/mL to 1 ng/mL, and 50 μL of the antibody solution was added to the peptide-coated wells. The plates were incubated for 1 hour at room temperature, then washed three times with PBST. Secondary detection antibody (goat anti-rat HRP (obtained from Southern Biotech)) was added with 1:5,000 dilutions and incubated for 1 hour at room temperature, then washed three times with PBST. Plates were developed with 50 μL/well of TMB substrate (Thermo Fisher) and quenched with 50 μL/well of 1 N sulfuric acid. The signal was quantified on a BioTek® plate reader at A450. A parallel repeat was performed for each peptide in a separate plate.

[6] = target: T4, asyn_113-127_118A (human); assay: Ala-scan peptide ELISA, row B, run 1
T4 construct: substitution is already in the entry; also called pep7
T4 peptide: Biotin-LEDMPADPDNEAYEM
Procedure: as §2

[7] = target: T5, asyn_113-127_120A (human); assay: Ala-scan peptide ELISA, row B, run 1
T5 construct: substitution is already in the entry; also called pep9
T5 peptide: Biotin-LEDMPVDADNEAYEM
Procedure: as §2

[8] = target: T6, asyn_113-127_121A (human); assay: Ala-scan peptide ELISA, row B, run 1
T6 construct: substitution is already in the entry; also called pep10
T6 peptide: Biotin-LEDMPVDPANEAYEM
Procedure: as §2

[9] = target: T7, asyn_113-127_125A (human); assay: Ala-scan peptide ELISA, row B, run 1
T7 construct: substitution is already in the entry; also called pep15
T7 peptide: Biotin-LEDMPVDPDNEAAEM
Procedure: as §2

[10] = target: T8, asyn_113-127_126A (human); assay: Ala-scan peptide ELISA, row B, run 1
T8 construct: substitution is already in the entry; also called pep16
T8 peptide: Biotin-LEDMPVDPDNEAYAM
Procedure: as §2

[11] = target: T9, asyn_113-127_127A (human); assay: Ala-scan peptide ELISA, row B, run 1
T9 construct: substitution is already in the entry; also called pep17
T9 peptide: Biotin-LEDMPVDPDNEAYEA
Procedure: as §2

[12] = target: T3, asyn_113-127; assay: Ala-scan peptide ELISA, row B, run 2
Procedure: as §2

[13] = target: T10, asyn_113-127_113A (human); assay: Ala-scan peptide ELISA, row B, run 2
T10 construct: substitution is already in the entry; also called pep2
T10 peptide: Biotin-AEDMPVDPDNEAYEM
Procedure: as §2

[14] = target: T11, asyn_113-127_114A (human); assay: Ala-scan peptide ELISA, row B, run 2
T11 construct: substitution is already in the entry; also called pep3
T11 peptide: Biotin-LADMPVDPDNEAYEM
Procedure: as §2

[15] = target: T12, asyn_113-127_115A (human); assay: Ala-scan peptide ELISA, row B, run 2
T12 construct: substitution is already in the entry; also called pep4
T12 peptide: Biotin-LEAMPVDPDNEAYEM
Procedure: as §2

[16] = target: T13, asyn_113-127_116A (human); assay: Ala-scan peptide ELISA, row B, run 2
T13 construct: substitution is already in the entry; also called pep5
T13 peptide: Biotin-LEDAPVDPDNEAYEM
Procedure: as §2

[17] = target: T14, asyn_113-127_117A (human); assay: Ala-scan peptide ELISA, row B, run 2
T14 construct: substitution is already in the entry; also called pep6
T14 peptide: Biotin-LEDMAVDPDNEAYEM
Procedure: as §2

[18] = target: T4, asyn_113-127_118A; assay: Ala-scan peptide ELISA, row B, run 2
Procedure: as §2

[19] = target: T15, asyn_113-127_119A (human); assay: Ala-scan peptide ELISA, row B, run 2
T15 construct: substitution is already in the entry; also called pep8
T15 peptide: Biotin-LEDMPVAPDNEAYEM
Procedure: as §2

[20] = target: T5, asyn_113-127_120A; assay: Ala-scan peptide ELISA, row B, run 2
Procedure: as §2

[21] = target: T6, asyn_113-127_121A; assay: Ala-scan peptide ELISA, row B, run 2
Procedure: as §2

[22] = target: T16, asyn_113-127_122A (human); assay: Ala-scan peptide ELISA, row B, run 2
T16 construct: substitution is already in the entry; also called pep11
T16 peptide: Biotin-LEDMPVDPDAEAYEM
Procedure: as §2

[23] = target: T17, asyn_113-127_123A (human); assay: Ala-scan peptide ELISA, row B, run 2
T17 construct: substitution is already in the entry; also called pep12
T17 peptide: Biotin-LEDMPVDPDNAAYEM
Procedure: as §2

[24] = target: T18, asyn_113-127_124G (human); assay: Ala-scan peptide ELISA, row B, run 2
T18 construct: substitution is already in the entry; also called pep13
T18 peptide: Biotin-LEDMPVDPDNEGYEM
Procedure: as §2

[25] = target: T19, asyn_113-127_124P (human); assay: Ala-scan peptide ELISA, row B, run 2
T19 construct: substitution is already in the entry; also called pep14
T19 peptide: Biotin-LEDMPVDPDNEPYEM
Procedure: as §2

[26] = target: T7, asyn_113-127_125A; assay: Ala-scan peptide ELISA, row B, run 2
Procedure: as §2

[27] = target: T8, asyn_113-127_126A; assay: Ala-scan peptide ELISA, row B, run 2
Procedure: as §2

[28] = target: T9, asyn_113-127_127A; assay: Ala-scan peptide ELISA, row B, run 2
Procedure: as §2

[29] = target: biotinylated human alpha-synuclein (human, UniProt P37840 1-140); assay: Ala-scan peptide ELISA, row B, run 2
Procedure: as §2

[30] = target: human alpha-synuclein monomer (human, UniProt P37840 1-140); assay: ELISA, plate coated with the peptide or protein, antibody titrated, anti-rat HRP, A450
Procedure: as §1

[31] = target: T1, alpha-synuclein peptide 1-61; assay: as above
Procedure: as §1

[32] = target: T2, alpha-synuclein peptide 1-95; assay: as above
Procedure: as §1

[33] = target: alpha-synuclein peptide 1-112 (human); assay: as above
Procedure: as §1

[34] = target: T20, alpha-synuclein peptide 95-140 (human); assay: as above
T20 construct: synthetic peptide coated on plate
Procedure: as §1

B1: 20H4 (antibody, rat IgG2b, V domains shown)
VH: AVQLVESGGGLVQPKESLKISCAASGFTFSNAAMYWVRQAPGKGLELLARIRTKPNNYATYHADSVKGRFTISRDDSQSMVYLHMGNLKTEDTAMYYCTADMATGDYWGPGVMVTVSS
VL: DIQMTQSPPVLSVSVGDRVTLSCKASQNINKNLDWYQQKHGEAPKPLIYSTNNLQTGVPSRFSGSGSGTDYTLTISSLQPEDVATYYCYQYKSAWTFGGGTKLELR
notes: also called clone 20H4; rat 20H4
antibody concentration at which ELISA is positive [1]: > 2600 ng/mL
antibody concentration at which ELISA is positive [2]: > 2600 ng/mL
antibody concentration at which ELISA is positive [3]: > 2600 ng/mL
Bmax (O.D. at 450 nm) [4]: 0.2 OD
EC50 [4]: 1.5 nM
A450 [5]: 0.501 OD
A450 [6]: 0.509 OD
A450 [7]: 0.393 OD
A450 [8]: 0.49 OD
A450 [9]: 0.049 OD
A450 [10]: 0.35 OD
A450 [11]: 0.333 OD
A450 [12]: 0.394 OD
A450 [13]: 0.407 OD
A450 [14]: 0.387 OD
A450 [15]: 0.387 OD
A450 [16]: 0.433 OD
A450 [17]: 0.459 OD
A450 [18]: 0.382 OD
A450 [19]: 0.056 OD
A450 [20]: 0.24 OD
A450 [21]: 0.317 OD
A450 [22]: 0.06 OD
A450 [23]: 0.378 OD
A450 [24]: 0.326 OD
A450 [25]: 0.058 OD
A450 [26]: 0.057 OD
A450 [27]: 0.392 OD
A450 [28]: 0.429 OD
A450 [29]: 0.931 OD
EC50 (read off the curve) [30]: ~0.2 µg/mL
binding result [31]: no binding (tested: 10 µg/ml (1 on the log axis))
binding result [32]: no binding (tested: 10 µg/ml (1 on the log axis))
binding result [33]: no binding (tested: 10 µg/ml (1 on the log axis))
EC50 (read off the curve) [34]: ~0.3 µg/mL
